Measurements taken from publication PMC9082627.

Molecular target: STX17-Flag (UniProt P56962)
Assay: co-IP

STING-HA C148A (from UniProt Q86WV6 1-379) (natural protein)
reduction of the co-immunoprecipitated interaction against STING WT: 50%
